Key:
[1] = substrate: C[S+](CC[C@H](N)c1nn[nH]n1)C[C@H]1O[C@@H](n2cnc3c(N)ncnc32)[C@H](O)[C@@H]1O; test: methyltransferase assay, HPLC / A410; assay type: biochemical, Streptomyces peucetius; settings: saturating ClNP 1.5 mM, 100 mM Tris pH 8.0, 37 °C, methyl donor
purified protein = substrate: C[S+](CC[C@H](N)C(=O)O)C[C@H]1O[C@@H](n2cnc3c(N)ncnc32)[C@H](O)[C@@H]1O; test: purified protein; settings: saturating ClNP 1.5 mM, 100 mM Tris pH 8.0, 37 °C, methyl donor

B1: DnrK (Streptomyces peucetius) (protein)
chain: MTAEPTVAARPQQIDALRTLIRLGSLHTPMVVRTAATLRLVDHILAGARTVKALAARTDTRPEALLRLIRHLVAIGLLEEDAPGEFVPTEVGELLADDHPAAQRAWHDLTQAVARADISFTRLPDAIRTGRPTYESIYGKPFYEDLAGRPDLRASFDSLLACDQDVAFDAPAAAYDWTNVRHVLDVGGGKGGFAAAIARRAPHVSATVLEMAGTVDTARSYLKDEGLSDRVDVVEGDFFEPLPRKADAIILSFVLLNWPDHDAVRILTRCAEALEPGGRILIHERDDLHENSFNEQFTELDLRMLVFLGGALRTREKWDGLAASAGLVVEEVRQLPSPTIPYDLSLLVLAPAATGA
- Km [1]: 335 ± 40 µmol/L
- kcat [1]: 0.000517 ± 1.67e-05 s⁻¹
- Km (purified protein): 138 ± 7 µmol/L
- kcat (purified protein): 0.000283 s⁻¹

— article PMC5026608
